Values joined by “and” are separate entries in the source; they are usually repeats but may differ in a detail not shown here. Identical values can stand only once. Ends that are not written are not given here.
Experiments:
[1] = molecular target: GST-KIAA1634 PDZ domain 5 (human); assay: G assay ELISA, 10 uM biotin peptide on anti-GST-captured GST-PDZ
[2] = molecular target: GST-ERBIN PDZ domain 1 (human); assay: as above
[3] = molecular target: GST-ZO-2 PDZ domain 1 (human); assay: as above
[4] = molecular target: GST-KIAA0380 PDZ domain 1, clone #25.6 (human); assay: as above
[5] = molecular target: GST-CASK PDZ domain 1 (human); assay: as above
[6] = molecular target: GST-Shank 1 PDZ domain 1 (human); assay: as above
[7] = molecular target: GST-CARD14 PDZ domain 1 (human); assay: as above
[8] = molecular target: GST-PAR3 PDZ domain 3, clone #182.1 (human); assay: as above
[9] = molecular target: GST-NeDLG PDZ domain 2 (human); assay: as above
[10] = molecular target: GST-Serine Protease PDZ domain 1 (human); assay: as above
[11] = molecular target: GST-ZO-2 PDZ domain 2 (human); assay: as above
[12] = molecular target: GST-X-11 beta PDZ domain 2 (human); assay: as above
[13] = molecular target: GST-INADL PDZ domain 8 (human); assay: as above
[14] = molecular target: GST-DLG1 PDZ domain 3 (human); assay: as above
[15] = molecular target: GST-X-11 beta PDZ domain 1 (human); assay: as above
[16] = molecular target: GST-FLJ12615 PDZ domain 1 (human); assay: as above
[17] = molecular target: GST-LIM-RIL PDZ domain 1 (human); assay: as above
[18] = molecular target: GST-KIAA0147 PDZ domain 2 (human); assay: as above
[19] = molecular target: GST-FLJ00011 PDZ domain 1 (human); assay: as above
[20] = molecular target: GST-INADL PDZ domain 4 (human); assay: as above
[21] = molecular target: GST-DLG1 PDZ domain 1 (human); assay: as above
[22] = molecular target: GST-MAGI1 PDZ domain 2 (human); assay: Matrix/G assay ELISA, E6 peptide titrated on GST-PDZ
[23] = molecular target: GST-DLG2 PDZ domain 3 (human); assay: as above
[24] = molecular target: GST-DLG3 PDZ domains 1-2 (human), Q92796; assay: as above
GST-DLG3 PDZ domains 1-2 (human), Q92796, sequence (Q92796 other isoform, or with tags, fused parts or gaps limits assumed): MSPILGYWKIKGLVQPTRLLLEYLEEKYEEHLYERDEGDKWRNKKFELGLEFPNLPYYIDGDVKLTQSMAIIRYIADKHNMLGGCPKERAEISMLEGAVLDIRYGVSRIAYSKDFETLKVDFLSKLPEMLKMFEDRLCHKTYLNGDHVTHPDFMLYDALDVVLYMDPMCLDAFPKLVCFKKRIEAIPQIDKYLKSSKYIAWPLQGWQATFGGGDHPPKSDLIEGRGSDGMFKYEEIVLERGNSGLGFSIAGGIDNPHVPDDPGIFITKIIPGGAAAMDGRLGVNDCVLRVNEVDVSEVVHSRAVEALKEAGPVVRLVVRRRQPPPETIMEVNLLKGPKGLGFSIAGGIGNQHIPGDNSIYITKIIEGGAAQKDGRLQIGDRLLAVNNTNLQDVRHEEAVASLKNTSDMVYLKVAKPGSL

[25] = molecular target: GST-PSD95 PDZ domain 2 (human); assay: as above
[26] = molecular target: GST-SIP1 PDZ domain 1 (human); assay: as above
[27] = molecular target: GST-SAST1 PDZ domain (human), Q9Y2H9; assay: as above
GST-SAST1 PDZ domain (human), Q9Y2H9, sequence (Q9Y2H9 other isoform, or with tags, fused parts or gaps limits assumed): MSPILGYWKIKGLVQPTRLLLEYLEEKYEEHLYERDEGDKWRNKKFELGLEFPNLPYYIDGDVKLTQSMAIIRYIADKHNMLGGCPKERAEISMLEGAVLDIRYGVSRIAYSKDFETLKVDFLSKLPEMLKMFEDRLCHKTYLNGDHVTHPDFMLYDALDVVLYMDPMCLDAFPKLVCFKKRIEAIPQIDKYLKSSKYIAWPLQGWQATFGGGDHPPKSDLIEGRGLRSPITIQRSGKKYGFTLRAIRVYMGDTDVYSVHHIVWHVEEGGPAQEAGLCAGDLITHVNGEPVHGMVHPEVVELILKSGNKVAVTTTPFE

[28] = molecular target: GST-SAST2 PDZ domain 1 (human); assay: as above
[29] = molecular target: GST-PSD95 PDZ domains 1-3 (human), P78352; assay: as above

Binder: WTGRCMSCCRSSRTRRETQL (not fully specified; cysteine pairing not given here) [HPV16 E6 C-terminal PDZ ligand peptide (20 mer, biotinylated), P03126 139-158]
- Ave OD [1]: 0.403 A450 nm
- OD S/N (ratio to GST only well) [1]: 2.07
- Ave OD [2]: 0.36 A450 nm and 0.342 A450 nm
- OD S/N (ratio to GST only well) [2]: 1.82 and 1.3
- Ave OD [3]: 0.342 A450 nm
- OD S/N (ratio to GST only well) [3]: 2.11
- Ave OD [4]: 0.376 A450 nm
- OD S/N (ratio to GST only well) [4]: 1.95
- Ave OD [5]: 0.36 A450 nm
- OD S/N (ratio to GST only well) [5]: 1.15
- Ave OD [6]: 0.385 A450 nm
- OD S/N (ratio to GST only well) [6]: 1.71
- Ave OD [7]: 0.342 A450 nm
- OD S/N (ratio to GST only well) [7]: 1.52
- Ave OD [8]: 0.445 A450 nm
- OD S/N (ratio to GST only well) [8]: 2.07
- Ave OD [9]: 0.425 A450 nm
- OD S/N (ratio to GST only well) [9]: 2.2
- Ave OD [10]: 0.343 A450 nm
- OD S/N (ratio to GST only well) [10]: 1.55
- Ave OD [11]: 0.356 A450 nm
- OD S/N (ratio to GST only well) [11]: 2.15
- Ave OD [12]: 0.431 A450 nm and 0.426 A450 nm
- OD S/N (ratio to GST only well) [12]: 2.95 and 1.78
- Ave OD [13]: 0.388 A450 nm
- OD S/N (ratio to GST only well) [13]: 1.58
- Ave OD [14]: 0.398 A450 nm
- OD S/N (ratio to GST only well) [14]: 2.45
- Ave OD [15]: 0.352 A450 nm
- OD S/N (ratio to GST only well) [15]: 2.02
- Ave OD [16]: 0.461 A450 nm
- OD S/N (ratio to GST only well) [16]: 2.24
- Ave OD [17]: 0.449 A450 nm
- OD S/N (ratio to GST only well) [17]: 1.6
- Ave OD [18]: 0.374 A450 nm
- OD S/N (ratio to GST only well) [18]: 2.46
- Ave OD [19]: 0.423 A450 nm
- OD S/N (ratio to GST only well) [19]: 2.9
- Ave OD [20]: 0.357 A450 nm
- OD S/N (ratio to GST only well) [20]: 2.15
- Ave OD [21]: 0.391 A450 nm
- OD S/N (ratio to GST only well) [21]: 2.98
- EC50 [22]: 0.056 µM
- EC50 [23]: 1.6 µM
- EC50 [24]: 3.8 µM
- EC50 [25]: 6.8 µM
- EC50 [26]: 7.5 µM
- EC50 [27]: 0.58 µM
- EC50 [28]: 1.2 µM
- EC50 [29]: 1 µM

— patent US20040229298A1
